# Measurements taken from patent US20090148513A1 (AbbVie / Abbott, published 2009).
# Target: rHuTNF (human, UniProt P01375 77-233)
# Test: cell-based or functional assay
# rHuTNF, sequence (P01375 77-233 limits assumed): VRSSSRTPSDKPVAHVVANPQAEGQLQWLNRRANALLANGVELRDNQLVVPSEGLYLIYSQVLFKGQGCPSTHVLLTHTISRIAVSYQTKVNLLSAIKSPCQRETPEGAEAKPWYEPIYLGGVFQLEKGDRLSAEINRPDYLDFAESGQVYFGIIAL
binder,measurement,value
"MAK195F, F(ab')2 fragment of the murine IgG3 monoclonal anti-hTNFalpha antibody MAK195 (other, N-terminal glutamine completely converted into pyroglutamic acid; partial O-glycosylation at SerH222 (about 70% of Fd' fragments non-glycosylated); deamidation of a single asparagine residue (AsnL157)) light: DIVMTQSHKFMSTTVGDRVSITCKASQAVSSAVAWYQQKPGQSPKLLIYWASTRHTGVPDRFTGSGSVTDFTLTIHNLQAEDLALYYCQQHYSTPFTFGSGTKLEIKRADAAPTVSIFPPSSEQLTSGGASVVCFLNNFYPKDINVKWKIDGSERQNGVLNSWTDQDSKDSTYSMSSTLTLTKDEYERHNSYTCEATHKTSTSPIVKSFNRNEC heavy: QVQLKESGPGLVAPSQSLSITCTVSGFSLTDYGVNWVRQPPGKGLEWLGMIWGDGSTDYDSTLKSRLSISKDNSKSQIFLKMNSLQTDDTARYYCAREWHHGPVAYWGQGTLVTVSAATTTAPSVYPLVPGCSDTSGSSVTLGCLVKGYFPEPVTVKWNYGALSSGVRTVSSVLQSGFYSLSSLVTVPSSTWPSQTVICNVAHPASKTELIKRIEPRIPKPSTPPGSSCPPGNILGGPSVF",relative biological activity (neutralisation of rHuTNF cytotoxicity on mouse L-929 cells; mean IC50 of reference standard / IC50 of sample x 100%),102%
